The values below come from WO2006121159A1 (dated 2006).

Substitutions are numbered along the chain they refer to.

This assay concerns the target T1, CD10 (membrane fraction of the CD10-high-expressing human small cell lung cancer cell line SBC-3) (human, UniProt P08473 2-750).
T1 construct: whole, on cells; The antigen was a crude cell membrane fraction, not purified CD10 and not intact cells; also called CALLA; neutral endopeptidase
The experiment in a line: ELISA; plate coated with membrane fraction of CD10-high SBC-3 cells; peroxidase-labelled anti-human IgG(H&L); OD415. (In general: ELISA stands for enzyme-linked immunosorbent assay.)

T1 sequence (P08473 2-750): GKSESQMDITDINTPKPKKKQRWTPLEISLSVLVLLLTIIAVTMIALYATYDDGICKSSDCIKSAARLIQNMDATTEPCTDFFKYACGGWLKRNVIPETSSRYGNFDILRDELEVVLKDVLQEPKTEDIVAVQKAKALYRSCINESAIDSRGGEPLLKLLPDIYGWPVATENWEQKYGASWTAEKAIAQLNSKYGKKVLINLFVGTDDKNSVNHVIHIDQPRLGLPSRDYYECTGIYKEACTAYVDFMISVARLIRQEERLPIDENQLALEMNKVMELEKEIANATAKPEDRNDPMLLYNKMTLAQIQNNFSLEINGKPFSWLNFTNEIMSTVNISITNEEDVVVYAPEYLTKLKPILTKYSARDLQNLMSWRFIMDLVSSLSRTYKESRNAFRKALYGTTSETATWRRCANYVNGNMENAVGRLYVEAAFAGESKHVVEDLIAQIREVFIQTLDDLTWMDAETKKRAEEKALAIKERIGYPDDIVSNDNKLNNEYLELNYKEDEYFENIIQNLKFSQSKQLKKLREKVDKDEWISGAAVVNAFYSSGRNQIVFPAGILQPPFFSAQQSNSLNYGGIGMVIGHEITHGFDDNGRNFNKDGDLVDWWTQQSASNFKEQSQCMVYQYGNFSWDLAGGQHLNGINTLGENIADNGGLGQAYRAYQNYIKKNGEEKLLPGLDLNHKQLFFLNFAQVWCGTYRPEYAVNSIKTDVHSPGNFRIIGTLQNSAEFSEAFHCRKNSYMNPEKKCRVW

B1: MS705/HV0LV9 antibody (anti-CD10 CDR-grafted antibody obtained from the HV0LV9MS705 strain, FERM BP-10099) (antibody, V domains shown)
VH: EVQLVESGGGVVQPGRSLRLSCAASGFTFSSFGMHWVRQAPGKGLEWVAYISGGSYTIYYADTVKGRFTISRDNSKNTLYLQMNSLRAEDTAVYYCARSYGNFWYFDVWGQGTTVTVSS
VL: DIVMTQSPDSLAVSLGERATIACSVSSSISSSNLHWYQQKPGQSPKPWIYGTSNLASGVPVRFSGSGSGTSYFLTISSLQAEDVATYYCQQWSSYPLTFGQGTKVEIKR
notes: Whole antibody expressed from pKANTEX3061HV0LV9 (human constant regions)
Consider B1, for which the binding result is “binds”.

B2: MS705/HV0LV0 antibody (anti-CD10 CDR-grafted antibody obtained from the HV0LV0MS705 strain) (antibody, V domains shown)
VH: B1 VH
VL: B1 VL with A22N, S44P, P47L, W48L, V61D, S71D, Y72F, F73T, T86V
notes: Whole antibody expressed from pKANTEX3061HV0LV0 (human constant regions from the anti-CD10 chimeric antibody expression vector)
Consider B2, for which the binding result is “binds”.

B3: MS705/HV2LV9 antibody (anti-CD10 CDR-grafted antibody obtained from the HV2LV9MS705 strain) (antibody, V domains shown)
VH: B1 VH with G42E, R98S
VL: B1 VL
notes: Whole antibody expressed from pKANTEX3061HV2LV9 (human constant regions)
For the molecule B3, the binding result is recorded as “binds”.
